# Measured values reported in the FLAb antibody collection (doi:10.7554/elife.23156).
# B1: scFv; the commonest letter at each place (parent)
# chain 1: EVKLDETGGGLVQPGRPMKLSCVASGFTFSDYWMNWVRQSPEKGLEWVAQIRNKPYNYETYYSDSVKGRFTISRDDSKSSVYLQMNNLRVEDMGIYYCTGSYYGMDYWGQGTSVTVS
# chain 2: DVVMTQTPLSLPVSLGDQASISCRSSQSLVHSNGNTYLRWYLQKPGQSPKVLIYKVSNRFSGVPDRFSGSGSGTDFTLKISRVEAEDLGVYFCSQSTHVPWTFGGGTKLEIK
# Legend:
# fluorescein = variants of: B1; assay: Kd (Tite-Seq); conditions: with fluorescein; format: scFv 4-4-20, heavy + light
# [1] = variants of: B1; assay: yeast surface expression (ratio to wild type); higher = more expressed; conditions: format: scFv 4-4-20, heavy + light
Kd (fluorescein),Variant,yeast surface expression [1]
3740 nM,chain 1 EVKLDETGGGLVQPGRPMKLSCVASGFTFSDYWMNWVRQSPEKGLEWVAQIRNKPYNYETYYSDSVKGRFTISRDDSKSSVYLQMNNLRVEDMGIYYCTGSYIGMDYCGQGTSVTVS chain 2 DVVMTQTPLSLPVSLGDQASISCRSSQSLVHSNGNTYLRWYLQKPGQSPKVLIYKVSNRFSGVPDRFSGSGSGTDFTLKISRVEAEDLGVYFCSQSTHVPWTFGGGTKLEIK [chain 1 Y103I W108C],0.359
≥ 10000 nM,chain 1 EVKLDETGGGLVQPGRPMKLSCVASGFTFSDYWMNWVRQSPEKGLEWVAQIRNKPYNYETYYSDSVKGRFTISRDDSKSSVYLQMNNLRVEDMGIYYCTGSYYWMDYWGQGTSVTVS chain 2 DVVMTQTPLSLPVSLGDQASISCRSSQSLVHSNGNTYLRWYLQKPGQSPKVLIYKVSNRFSGVPDRFSGSGSGTDFTLKISRVEAEDLGVYFCSQSTHVPWTFGGGTKLEIK [chain 1 G104W],0.587
≥ 10000 nM,chain 1 EVKLDETGGGLVQPGRPMKLSCVASGFTFSDYWMNWVRQSPEKGLEWVAQIRNKPYNYETYYSDSVKGRFTISRDDSKSSVYLQMNNLRVEDMGIYYCTESYYGMDYWGQGTSVTVS chain 2 DVVMTQTPLSLPVSLGDQASISCRSSQSLVHSNGNTYLRWYLQKPGQSPKVLIYKVSNRFSGVPDRFSGSGSGTDFTLKISRVEAEDLGVYFCSQSTHVPWTFGGGTKLEIK [chain 1 G100E],0.388
≥ 10000 nM,chain 1 EVKLDETGGGLVQPGRPMKLSCVASGFTDSDYYMNWVRQSPEKGLEWVAQIRNKPYNYETYYSDSVKGRFTISRDDSKSSVYLQMNNLRVEDMGIYYCTGSYYGMDYWGQGTSVTVS chain 2 DVVMTQTPLSLPVSLGDQASISCRSSQSLVHSNGNTYLRWYLQKPGQSPKVLIYKVSNRFSGVPDRFSGSGSGTDFTLKISRVEAEDLGVYFCSQSTHVPWTFGGGTKLEIK [chain 1 F29D W33Y],0.766
24.5 nM,chain 1 EVKLDETGGGLVQPGRPMKLSCVASGFTFSDYWMNWVRQSPEKGLEWVAQIRNKPYNYETYYSDSVKGRFTISRDDSKSSVYLQMNNLRVEDMGIYYCTSSYHGMDYWGQGTSVTVS chain 2 DVVMTQTPLSLPVSLGDQASISCRSSQSLVHSNGNTYLRWYLQKPGQSPKVLIYKVSNRFSGVPDRFSGSGSGTDFTLKISRVEAEDLGVYFCSQSTHVPWTFGGGTKLEIK [chain 1 G100S Y103H],1.01
9.93 nM,chain 1 EVKLDETGGGLVQPGRPMKLSCVASGFTFSDAWMNWVRQSPEKGLEWVAQIRNKPYNYETYYSDSVKGRFTISRDDSKSSVYLQMNNLRVEDMGIYYCTGSYYGMDYWGQGTSVTVS chain 2 DVVMTQTPLSLPVSLGDQASISCRSSQSLVHSNGNTYLRWYLQKPGQSPKVLIYKVSNRFSGVPDRFSGSGSGTDFTLKISRVEAEDLGVYFCSQSTHVPWTFGGGTKLEIK [chain 1 Y32A],1.15

# The remaining lines, values behind:
Variant,Kd (fluorescein),yeast surface expression [1]
chain 1 EVKLDETGGGLVQPGRPMKLSCVASGFTFSDYWMNWVRQSPEKGLEWVAQIRNKPYNYETYYSDSVKGRFTISRDDSKSSVYLQMNNLRVEDMGIYYCTGSYAGMDYWGQGTSVTVS chain 2 DVVMTQTPLSLPVSLGDQASISCRSSQSLVHSNGNTYLRWYLQKPGQSPKVLIYKVSNRFSGVPDRFSGSGSGTDFTLKISRVEAEDLGVYFCSQSTHVPWTFGGGTKLEIK [chain 1 Y103A],15 nM,0.932
chain 1 EVKLDETGGGLVQPGRPMKLSCVASGFTFSDYWMNWVRQSPEKGLEWVAQIRNKPYNYETYYSDSVKGRFTISRDDSKSSVYLQMNNLRVEDMGIYYCTGSYMGMDYWGQGTSVTVS chain 2 DVVMTQTPLSLPVSLGDQASISCRSSQSLVHSNGNTYLRWYLQKPGQSPKVLIYKVSNRFSGVPDRFSGSGSGTDFTLKISRVEAEDLGVYFCSQSTHVPWTFGGGTKLEIK [chain 1 Y103M],1.5 nM,1.27
chain 1 EVKLDETGGGLVQPGRPMKLSCVASGFTTSDYWSNWVRQSPEKGLEWVAQIRNKPYNYETYYSDSVKGRFTISRDDSKSSVYLQMNNLRVEDMGIYYCTGSYYGMDYWGQGTSVTVS chain 2 DVVMTQTPLSLPVSLGDQASISCRSSQSLVHSNGNTYLRWYLQKPGQSPKVLIYKVSNRFSGVPDRFSGSGSGTDFTLKISRVEAEDLGVYFCSQSTHVPWTFGGGTKLEIK [chain 1 F29T M34S],≥ 10000 nM,0.649
chain 1 EVKLDETGGGLVQPGRPMKLSCVASGFTFSDYWMNWVRQSPEKGLEWVAQIRNKPYNYETYYSDSVKGRFTISRDDSKSSVYLQMNNLRVEDMGIYYCTGCYYGMIYWAQGTSVTVS chain 2 DVVMTQTPLSLPVSLGDQASISCRSSQSLVHSNGNTYLRWYLQKPGQSPKVLIYKVSNRFSGVPDRFSGSGSGTDFTLKISRVEAEDLGVYFCSQSTHVPWTFGGGTKLEIK [chain 1 S101C D106I G109A],≥ 10000 nM,0.168
chain 1 EVKLDETGGGLVQPGRPMKLSCVASGFTFSDYWMNWVRQSPEKGLEWVAQIRNKPYNYETYYSDSVKGRFTISRDDSKSSVYLQMNNLRVEDMGIYYCTGSYYGDIYWGQGTSVTVS chain 2 DVVMTQTPLSLPVSLGDQASISCRSSQSLVHSNGNTYLRWYLQKPGQSPKVLIYKVSNRFSGVPDRFSGSGSGTDFTLKISRVEAEDLGVYFCSQSTHVPWTFGGGTKLEIK [chain 1 M105D D106I],≥ 10000 nM,0.844
chain 1 EVKLDETGGGLVQPGRPMKLSCVASGFTPSRYWMNWVRQSPEKGLEWVAQIRNKPYNYETYYSDSVKGRFTISRDDSKSSVYLQMNNLRVEDMGIYYCTGSYYGMDYWGQGTSVTVS chain 2 DVVMTQTPLSLPVSLGDQASISCRSSQSLVHSNGNTYLRWYLQKPGQSPKVLIYKVSNRFSGVPDRFSGSGSGTDFTLKISRVEAEDLGVYFCSQSTHVPWTFGGGTKLEIK [chain 1 F29P D31R],25.9 nM,0.86
